Test results taken from patent US20150299281A1 (ZEALAND PHARMA A S, published 2015).
One block for each binder: values may come before it. Square brackets hold non-standard residues; d marks the D form. Aib = CC(C)(N)C(=O)O

Experiments:
human GLP-1 receptor = human GLP-1 receptor (human, UniProt P43220 24-463); assay: cell-based or functional assay
human GIP receptor = target: T1, human GIP receptor (human, UniProt P48546 22-466); assay: cell-based or functional assay
T1 sequence (looked up): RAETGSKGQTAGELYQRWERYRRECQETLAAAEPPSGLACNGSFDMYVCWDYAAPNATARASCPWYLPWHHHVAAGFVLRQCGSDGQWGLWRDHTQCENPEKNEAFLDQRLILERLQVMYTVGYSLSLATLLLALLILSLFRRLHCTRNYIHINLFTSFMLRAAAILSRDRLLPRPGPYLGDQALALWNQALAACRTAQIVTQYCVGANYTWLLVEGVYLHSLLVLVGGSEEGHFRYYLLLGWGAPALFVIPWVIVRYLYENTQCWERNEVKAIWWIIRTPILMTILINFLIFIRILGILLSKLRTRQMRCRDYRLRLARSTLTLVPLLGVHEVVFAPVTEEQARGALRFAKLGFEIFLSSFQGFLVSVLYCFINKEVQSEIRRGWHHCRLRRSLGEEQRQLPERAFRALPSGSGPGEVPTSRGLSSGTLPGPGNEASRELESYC

EC50, cAMP induction in HEK293 cells expressing human GLP-1 R (human GLP-1 receptor): 0.009 nM | EC50, cAMP induction in HEK293 cells expressing human GIP R (human GIP receptor): 0.049 nM
B1: Compound 20 (peptide)
peptide: H-Y[Aib]EGTFTSDYSIYLDKKAQRAFVKWLLA[Aib]K-NH2
SMILES: CC[C@H](C)[C@H](NC(=O)[C@H](CO)NC(=O)[C@H](Cc1ccc(O)cc1)NC(=O)[C@H](CC(=O)O)NC(=O)[C@H](CO)NC(=O)[C@@H](NC(=O)[C@H](Cc1ccccc1)NC(=O)[C@@H](NC(=O)CNC(=O)[C@H](CCC(=O)O)NC(=O)C(C)(C)NC(=O)[C@@H](N)Cc1ccc(O)cc1)[C@@H](C)O)[C@@H](C)O)C(=O)N[C@@H](Cc1ccc(O)cc1)C(=O)N[C@@H](CC(C)C)C(=O)N[C@@H](CC(=O)O)C(=O)N[C@@H](CCCCN)C(=O)N[C@@H](CCCCN)C(=O)N[C@@H](C)C(=O)N[C@@H](CCC(N)=O)C(=O)N[C@@H](CCCNC(=N)N)C(=O)N[C@@H](C)C(=O)N[C@@H](Cc1ccccc1)C(=O)N[C@H](C(=O)N[C@@H](CCCCN)C(=O)N[C@@H](Cc1c[nH]c2ccccc12)C(=O)N[C@@H](CC(C)C)C(=O)N[C@@H](CC(C)C)C(=O)N[C@@H](C)C(=O)NC(C)(C)C(=O)N[C@@H](CCCCN)C(N)=O)C(C)C

EC50, cAMP induction in HEK293 cells expressing human GLP-1 R (human GLP-1 receptor): 0.012 nM | EC50, cAMP induction in HEK293 cells expressing human GIP R (human GIP receptor): 0.42 nM
B3: Compound 23 (peptide)
peptide: H-Y[Aib]EGTFTSDYSIYLDKKAQRAFVNWLKA[Aib]K-NH2
SMILES: CC[C@H](C)[C@H](NC(=O)[C@H](CO)NC(=O)[C@H](Cc1ccc(O)cc1)NC(=O)[C@H](CC(=O)O)NC(=O)[C@H](CO)NC(=O)[C@@H](NC(=O)[C@H](Cc1ccccc1)NC(=O)[C@@H](NC(=O)CNC(=O)[C@H](CCC(=O)O)NC(=O)C(C)(C)NC(=O)[C@@H](N)Cc1ccc(O)cc1)[C@@H](C)O)[C@@H](C)O)C(=O)N[C@@H](Cc1ccc(O)cc1)C(=O)N[C@@H](CC(C)C)C(=O)N[C@@H](CC(=O)O)C(=O)N[C@@H](CCCCN)C(=O)N[C@@H](CCCCN)C(=O)N[C@@H](C)C(=O)N[C@@H](CCC(N)=O)C(=O)N[C@@H](CCCNC(=N)N)C(=O)N[C@@H](C)C(=O)N[C@@H](Cc1ccccc1)C(=O)N[C@H](C(=O)N[C@@H](CC(N)=O)C(=O)N[C@@H](Cc1c[nH]c2ccccc12)C(=O)N[C@@H](CC(C)C)C(=O)N[C@@H](CCCCN)C(=O)N[C@@H](C)C(=O)NC(C)(C)C(=O)N[C@@H](CCCCN)C(N)=O)C(C)C

EC50, cAMP induction in HEK293 cells expressing human GLP-1 R (human GLP-1 receptor): 0.009 nM | EC50, cAMP induction in HEK293 cells expressing human GIP R (human GIP receptor): 0.08 nM
B6: Compound 21 (peptide)
peptide: H-Y[Aib]EGTFTSDYSIYLDKKAQRAFVNWLVA[Aib]K-NH2
SMILES: CC[C@H](C)[C@H](NC(=O)[C@H](CO)NC(=O)[C@H](Cc1ccc(O)cc1)NC(=O)[C@H](CC(=O)O)NC(=O)[C@H](CO)NC(=O)[C@@H](NC(=O)[C@H](Cc1ccccc1)NC(=O)[C@@H](NC(=O)CNC(=O)[C@H](CCC(=O)O)NC(=O)C(C)(C)NC(=O)[C@@H](N)Cc1ccc(O)cc1)[C@@H](C)O)[C@@H](C)O)C(=O)N[C@@H](Cc1ccc(O)cc1)C(=O)N[C@@H](CC(C)C)C(=O)N[C@@H](CC(=O)O)C(=O)N[C@@H](CCCCN)C(=O)N[C@@H](CCCCN)C(=O)N[C@@H](C)C(=O)N[C@@H](CCC(N)=O)C(=O)N[C@@H](CCCNC(=N)N)C(=O)N[C@@H](C)C(=O)N[C@@H](Cc1ccccc1)C(=O)N[C@H](C(=O)N[C@@H](CC(N)=O)C(=O)N[C@@H](Cc1c[nH]c2ccccc12)C(=O)N[C@@H](CC(C)C)C(=O)N[C@H](C(=O)N[C@@H](C)C(=O)NC(C)(C)C(=O)N[C@@H](CCCCN)C(N)=O)C(C)C)C(C)C

Continued, binder first:

B2: Compound 19 (peptide)
peptide: H-Y[Aib]EGTFTSDYSIYLDKKAQKEFVNWLLA[Aib]K-NH2
SMILES: CC[C@H](C)[C@H](NC(=O)[C@H](CO)NC(=O)[C@H](Cc1ccc(O)cc1)NC(=O)[C@H](CC(=O)O)NC(=O)[C@H](CO)NC(=O)[C@@H](NC(=O)[C@H](Cc1ccccc1)NC(=O)[C@@H](NC(=O)CNC(=O)[C@H](CCC(=O)O)NC(=O)C(C)(C)NC(=O)[C@@H](N)Cc1ccc(O)cc1)[C@@H](C)O)[C@@H](C)O)C(=O)N[C@@H](Cc1ccc(O)cc1)C(=O)N[C@@H](CC(C)C)C(=O)N[C@@H](CC(=O)O)C(=O)N[C@@H](CCCCN)C(=O)N[C@@H](CCCCN)C(=O)N[C@@H](C)C(=O)N[C@@H](CCC(N)=O)C(=O)N[C@@H](CCCCN)C(=O)N[C@@H](CCC(=O)O)C(=O)N[C@@H](Cc1ccccc1)C(=O)N[C@H](C(=O)N[C@@H](CC(N)=O)C(=O)N[C@@H](Cc1c[nH]c2ccccc12)C(=O)N[C@@H](CC(C)C)C(=O)N[C@@H](CC(C)C)C(=O)N[C@@H](C)C(=O)NC(C)(C)C(=O)N[C@@H](CCCCN)C(N)=O)C(C)C
EC50, cAMP induction in HEK293 cells expressing human GLP-1 R (human GLP-1 receptor): 0.0073 nM | EC50, cAMP induction in HEK293 cells expressing human GIP R (human GIP receptor): 0.015 nM

B4: Compound 17 (peptide)
peptide: H-Y[Aib]EGTFTSDYSIYLDEKAQRAFVNWLLA[Aib]K-NH2
SMILES: CC[C@H](C)[C@H](NC(=O)[C@H](CO)NC(=O)[C@H](Cc1ccc(O)cc1)NC(=O)[C@H](CC(=O)O)NC(=O)[C@H](CO)NC(=O)[C@@H](NC(=O)[C@H](Cc1ccccc1)NC(=O)[C@@H](NC(=O)CNC(=O)[C@H](CCC(=O)O)NC(=O)C(C)(C)NC(=O)[C@@H](N)Cc1ccc(O)cc1)[C@@H](C)O)[C@@H](C)O)C(=O)N[C@@H](Cc1ccc(O)cc1)C(=O)N[C@@H](CC(C)C)C(=O)N[C@@H](CC(=O)O)C(=O)N[C@@H](CCC(=O)O)C(=O)N[C@@H](CCCCN)C(=O)N[C@@H](C)C(=O)N[C@@H](CCC(N)=O)C(=O)N[C@@H](CCCNC(=N)N)C(=O)N[C@@H](C)C(=O)N[C@@H](Cc1ccccc1)C(=O)N[C@H](C(=O)N[C@@H](CC(N)=O)C(=O)N[C@@H](Cc1c[nH]c2ccccc12)C(=O)N[C@@H](CC(C)C)C(=O)N[C@@H](CC(C)C)C(=O)N[C@@H](C)C(=O)NC(C)(C)C(=O)N[C@@H](CCCCN)C(N)=O)C(C)C
EC50, cAMP induction in HEK293 cells expressing human GLP-1 R (human GLP-1 receptor): 0.0074 nM | EC50, cAMP induction in HEK293 cells expressing human GIP R (human GIP receptor): 0.021 nM

B5: Compound 18 (peptide)
peptide: H-Y[Aib]EGTFTSDYSIYLDSKAKRAFVNWLLA[Aib]K-NH2
SMILES: CC[C@H](C)[C@H](NC(=O)[C@H](CO)NC(=O)[C@H](Cc1ccc(O)cc1)NC(=O)[C@H](CC(=O)O)NC(=O)[C@H](CO)NC(=O)[C@@H](NC(=O)[C@H](Cc1ccccc1)NC(=O)[C@@H](NC(=O)CNC(=O)[C@H](CCC(=O)O)NC(=O)C(C)(C)NC(=O)[C@@H](N)Cc1ccc(O)cc1)[C@@H](C)O)[C@@H](C)O)C(=O)N[C@@H](Cc1ccc(O)cc1)C(=O)N[C@@H](CC(C)C)C(=O)N[C@@H](CC(=O)O)C(=O)N[C@@H](CO)C(=O)N[C@@H](CCCCN)C(=O)N[C@@H](C)C(=O)N[C@@H](CCCCN)C(=O)N[C@@H](CCCNC(=N)N)C(=O)N[C@@H](C)C(=O)N[C@@H](Cc1ccccc1)C(=O)N[C@H](C(=O)N[C@@H](CC(N)=O)C(=O)N[C@@H](Cc1c[nH]c2ccccc12)C(=O)N[C@@H](CC(C)C)C(=O)N[C@@H](CC(C)C)C(=O)N[C@@H](C)C(=O)NC(C)(C)C(=O)N[C@@H](CCCCN)C(N)=O)C(C)C
EC50, cAMP induction in HEK293 cells expressing human GLP-1 R (human GLP-1 receptor): 0.015 nM | EC50, cAMP induction in HEK293 cells expressing human GIP R (human GIP receptor): 0.36 nM
